Columns and labels:
[1] = Determination of logD(7.4), distribution between n-octanol and phosphate buffer pH 7.4; format: physicochemical; conditions: n-octanol / 0.05-M phosphate buffer pH 7.4; 89Zr-labeled peptide-chelator conjugate
Experimental: To a mixture of 1-octanol (800 µL) and 0.05-M phosphate buffer (775 µL, pH 7.4), a solution of the respective ^89Zr-labeled peptide conjugate (5µL of the before-obtained product solution, 0.8–1.2 MBq, 0.37–0.45 nmol) was added. The mixture was vigorously shaken for two minutes. Afterwards, the phases were separated by centrifugation. Two hundred microliters of each, the organic and the aqueous, phase were measured in a gamma counter. Each experiment was performed at least thrice, each in duplicate.
The logD(7.4) values of the ^89Zr-labeled peptide–chelator conjugates were determined by their distribution coefficient between n-octanol and phosphate buffer at pH 7.4.

[2] = EDTA-based 89Zr complex challenge experiments (relative kinetic inertness, radio-HPLC); format: physicochemical; conditions: 10,000 eq. of EDTA, pH 7.0, 25 °C, transchelation monitored for up to 54 h by radio-HPLC
Experimental: For each challenge experiment, three separate solutions of EDTA (14.61 mg, 50 µmol EDTA) in HEPES buffer (0.25 M, pH = 7.0, 380 µL) were prepared. The pH of the solutions was adjusted to pH 7.0 by the addition of a NaOH solution (30%, 12.5 µL), and Tracepur water (7.5 µL) was added to give a final volume of 400 µL of the EDTA solutions. To these solutions was added a solution of the respective ^89Zr-labeled peptide conjugate (5 nmol, 9.7–13.9 MBq), and the solutions were kept at 25 °C over the course of the experiment. At predefined time points, each solution was analyzed by analytical radio-HPLC for determination of the amount of ^89Zr transchelation. Each experiment was performed at least twice, each in triplicate.
In order to directly compare and assess the kinetic inertness of the formed ^89Zr complexes of [^89Zr]Zr-29–[^89Zr]Zr-32, we performed complex challenge experiments using EDTA as the challenging agent of [^89Zr]Zr-30–[^89Zr]Zr-32 in comparison to [^89Zr]Zr-29 serving as the gold standard. […]

integrin αvβ3 = test system: integrin αvβ3; design: method as in PMID 28074920; conditions: cited from earlier work

Compound: CC(=O)N(O)CCCCCNC(=O)CCC(=O)N(O)CCCCCNC(=O)CCC(=O)N(O)CCCCCNC(=O)CCC(=O)NCc1ccc(-c2nncc3c2CCC(OC(=O)NCCCC[C@@H]2NC(=O)[C@@H](Cc4ccccc4)NC(=O)[C@H](CC(=O)O)NC(=O)CNC(=O)[C@H](CCCNC(=N)N)NC2=O)CCC3)cc1 (some centres unmarked) [[^89Zr]Zr-29, metal not drawn]
- logD [1]: -2.32 ± 0.21
- kinetic inertness of the 89Zr complex against EDTA challenge [2]: limited inertness and rapid transfer of the radiometal to EDTA

Compound: CC(=O)N(O)CCCCCNC(=O)CCC(=O)N(O)CCCCCNC(=O)CCC(=O)N(O)CCCCCNC(=O)CCC(=O)N(O)CCCCCNC(=O)CCC(=O)NCc1ccc(-c2nncc3c2CCC(OC(=O)NCCCC[C@@H]2NC(=O)[C@@H](Cc4ccccc4)NC(=O)[C@H](CC(=O)O)NC(=O)CNC(=O)[C@H](CCCNC(=N)N)NC2=O)CCC3)cc1 (some centres unmarked) [[^89Zr]Zr-31, metal not drawn]
- logD [1]: -2.49 ± 0.03
- kinetic inertness of the 89Zr complex against EDTA challenge [2]: high resistance to the challenge

Compound: c(RGDfK)
- affinity for integrin αvβ3 (integrin αvβ3): high affinity
